Experimental data reported in publication PMC8298264, “Function of cofactor Akirin2 in the regulation of gene expression in model human neutrophil-like HL60 cells” (Bioscience Reports, 2021).

B1: sp¦P41252¦SYIC_HUMAN (protein, UniProt P41252 1-1262, looked up)
Isoleucine--tRNA ligase, …: MLQQVPENINFPAEEEKILEFWTEFNCFQECLKQSKHKPKFTFYDGPPFATGLPHYGHILAGTIKDIVTRYAHQSGFHVDRRFGWDCHGLPVEYEIDKTLGIRGPEDVAKMGITEYNNQCRAIVMRYSAEWKSTVSRLGRWIDFDNDYKTLYPQFMESVWWVFKQLYDKGLVYRGVKVMPFSTACNTPLSNFESHQNYKDVQDPSVFVTFPLEEDETVSLVAWTTTPWTLPSNLAVCVNPEMQYVKIKDVARGRLLILMEARLSALYKLESDYEILERFPGAYLKGKKYRPLFDYFLKCKENGAFTVLVDNYVKEEEGTGVVHQAPYFGAEDYRVCMDFNIIRKDSLPVCPVDASGCFTTEVTDFAGQYVKDADKSIIRTLKEQGRLLVATTFTHSYPFCWRSDTPLIYKAVPSWFVRVENMVDQLLRNNDLCYWVPELVREKRFGNWLKDARDWTISRNRYWGTPIPLWVSDDFEEVVCIGSVAELEELSGAKISDLHRESVDHLTIPSRCGKGSLHRISEVFDCWFESGSMPYAQVHYPFENKREFEDAFPADFIAEGIDQTRGWFYTLLVLATALFGQPPFKNVIVNGLVLASDGQKMSKRKKNYPDPVSIIQKYGADALRLYLINSPVVRAENLRFKEEGVRDVLKDVLLPWYNAYRFLIQNVLRLQKEEEIEFLYNENTVRESPNITDRWILSFMQSLIGFFETEMAAYRLYTVVPRLVKFVDILTNWYVRMNRRRLKGENGMEDCVMALETLFSVLLSLCRLMAPYTPFLTELMYQNLKVLIDPVSVQDKDTLSIHYLMLPRVREELIDKKTESAVSQMQSVIELGRVIRDRKTIPIKYPLKEIVVIHQDPEALKDIKSLEKYIIEELNVRKVTLSTDKNKYGIRLRAEPDHMVLGKRLKGAFKAVMTSIKQLSSEELEQFQKTGTIVVEGHELHDEDIRLMYTFDQATGGTAQFEAHSDAQALVLLDVTPDQSMVDEGMAREVINRIQKLRKKCNLVPTDEITVYYKAKSEGTYLNSVIESHTEFIFTTIKAPLKPYPVSPSDKVLIQEKTQLKGSELEITLTRGSSLPGPACAYVNLNICANGSEQGGVLLLENPKGDNRLDLLKLKSVVTSIFGVKNTELAVFHDETEIQNQTDLLSLSGKTLCVTAGSAPSLINSSSTLLCQYINLQLLNAKPQECLMGTVGTLLLENPLGQNGLTHQGLLYEAAKVFGLRSRKLKLFLNETQTQEITEDIPVKTLNMKTVYVSVLPTTADF
B2: sp¦O95373¦IPO7_HUMAN (protein, UniProt O95373 1-1038, looked up)
Importin-7: MDPNTIIEALRGTMDPALREAAERQLNEAHKSLNFVSTLLQITMSEQLDLPVRQAGVIYLKNMITQYWPDRETAPGDISPYTIPEEDRHCIRENIVEAIIHSPELIRVQLTTCIHHIIKHDYPSRWTAIVDKIGFYLQSDNSACWLGILLCLYQLVKNYEYKKPEERSPLVAAMQHFLPVLKDRFIQLLSDQSDQSVLIQKQIFKIFYALVQYTLPLELINQQNLTEWIEILKTVVNRDVPNETLQVEEDDRPELPWWKCKKWALHILARLFERYGSPGNVSKEYNEFAEVFLKAFAVGVQQVLLKVLYQYKEKQYMAPRVLQQTLNYINQGVSHALTWKNLKPHIQGIIQDVIFPLMCYTDADEELWQEDPYEYIRMKFDVFEDFISPTTAAQTLLFTACSKRKEVLQKTMGFCYQILTEPNADPRKKDGALHMIGSLAEILLKKKIYKDQMEYMLQNHVFPLFSSELGYMRARACWVLHYFCEVKFKSDQNLQTALELTRRCLIDDREMPVKVEAAIALQVLISNQEKAKEYITPFIRPVMQALLHIIRETENDDLTNVIQKMICEYSEEVTPIAVEMTQHLAMTFNQVIQTGPDEEGSDDKAVTAMGILNTIDTLLSVVEDHKEITQQLEGICLQVIGTVLQQHVLEFYEEIFSLAHSLTCQQVSPQMWQLLPLVFEVFQQDGFDYFTDMMPLLHNYVTVDTDTLLSDTKYLEMIYSMCKKVLTGVAGEDAECHAAKLLEVIILQCKGRGIDQCIPLFVEAALERLTREVKTSELRTMCLQVAIAALYYNPHLLLNTLENLRFPNNVEPVTNHFITQWLNDVDCFLGLHDRKMCVLGLCALIDMEQIPQVLNQVSGQILPAFILLFNGLKRAYACHAEHENDSDDDDEAEDDDETEELGSDEDDIDEDGQEYLEILAKQAGEDGDDEDWEEDDAEETALEGYSTIIDDEDNPVDEYQIFKAIFQTIQNRNPVWYQALTHGLNEEQRKQLQDIATLADQRRAAHESKMIEKHGGYKFSAPVVPSSFNFGGPAPGMN
B3: sp¦Q9Y2X3¦NOP58_HUMAN (protein, UniProt Q9Y2X3 1-529, looked up)
Nucleolar protein 58: MLVLFETSVGYAIFKVLNEKKLQEVDSLWKEFETPEKANKIVKLKHFEKFQDTAEALAAFTALMEGKINKQLKKVLKKIVKEAHEPLAVADAKLGGVIKEKLNLSCIHSPVVNELMRGIRSQMDGLIPGVEPREMAAMCLGLAHSLSRYRLKFSADKVDTMIVQAISLLDDLDKELNNYIMRCREWYGWHFPELGKIISDNLTYCKCLQKVGDRKNYASAKLSELLPEEVEAEVKAAAEISMGTEVSEEDICNILHLCTQVIEISEYRTQLYEYLQNRMMAIAPNVTVMVGELVGARLIAHAGSLLNLAKHAASTVQILGAEKALFRALKSRRDTPKYGLIYHASLVGQTSPKHKGKISRMLAAKTVLAIRYDAFGEDSSSAMGVENRAKLEARLRTLEDRGIRKISGTGKALAKTEKYEHKSEVKTYDPSGDSTLPTCSKKRKIEQVDKEDEITEKKAKKAKIKVKVEEEEEEKVAEEEETSVKKKKKRGKKKHIKEEPLSEEEPCTSTAIASPEKKKKKKKKRENED
B4: sp¦Q92973¦TNPO1_HUMAN (protein, UniProt Q92973 1-898, looked up)
Transportin-1: MVWDRQTKMEYEWKPDEQGLQQILQLLKESQSPDTTIQRTVQQKLEQLNQYPDFNNYLIFVLTKLKSEDEPTRSLSGLILKNNVKAHFQNFPNGVTDFIKSECLNNIGDSSPLIRATVGILITTIASKGELQNWPDLLPKLCSLLDSEDYNTCEGAFGALQKICEDSAEILDSDVLDRPLNIMIPKFLQFFKHSSPKIRSHAVACVNQFIISRTQALMLHIDSFIENLFALAGDEEPEVRKNVCRALVMLLEVRMDRLLPHMHNIVEYMLQRTQDQDENVALEACEFWLTLAEQPICKDVLVRHLPKLIPVLVNGMKYSDIDIILLKGDVEEDETIPDSEQDIRPRFHRSRTVAQQHDEDGIEEEDDDDDEIDDDDTISDWNLRKCSAAALDVLANVYRDELLPHILPLLKELLFHHEWVVKESGILVLGAIAEGCMQGMIPYLPELIPHLIQCLSDKKALVRSITCWTLSRYAHWVVSQPPDTYLKPLMTELLKRILDSNKRVQEAACSAFATLEEEACTELVPYLAYILDTLVFAFSKYQHKNLLILYDAIGTLADSVGHHLNKPEYIQMLMPPLIQKWNMLKDEDKDLFPLLECLSSVATALQSGFLPYCEPVYQRCVNLVQKTLAQAMLNNAQPDQYEAPDKDFMIVALDLLSGLAEGLGGNIEQLVARSNILTLMYQCMQDKMPEVRQSSFALLGDLTKACFQHVKPCIADFMPILGTNLNPEFISVCNNATWAIGEISIQMGIEMQPYIPMVLHQLVEIINRPNTPKTLLENTAITIGRLGYVCPQEVAPMLQQFIRPWCTSLRNIRDNEEKDSAFRGICTMISVNPSGVIQDFIFFCDAVASWINPKDDLRDMFCKILHGFKNQVGDENWRRFSDQFPLPLKERLAAFYGV
B5: sp¦Q13637¦RAB32_HUMAN (protein, UniProt Q13637 2-225, looked up)
Ras-related protein Rab-32: AGGGAGDPGLGAAAAPAPETREHLFKVLVIGELGVGKTSIIKRYVHQLFSQHYRATIGVDFALKVLNWDSRTLVRLQLWDIAGQERFGNMTRVYYKEAVGAFVVFDISRSSTFEAVLKWKSDLDSKVHLPNGSPIPAVLLANKCDQNKDSSQSPSQVDQFCKEHGFAGWFETSAKDNINIEEAARFLVEKILVNHQSFPNEENDVDKIKLDQETLRAENKSQCC

Tested on: human HL60 cells
Test: SWATH-MS proteomics, differential protein representation, akirin2 KO vs WT HL60 cells
Format: cell-based
Conditions: akirin2 KO vs WT HL60 cells; sheet "Under-represented in KO"
Procedure, shortened: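 WT and akirin2 KO HL60 lysates (150 µg, n=3 biological replicates) were FASP trypsin-digested and desalted. A spectral library was built by IDA from 3 µg digests, then 5 µg per sample went to variable-window SWATH DIA over a 120-min 5–30% acetonitrile gradient. Identifications were accepted at 1% global FDR, with total-area-sum normalization.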

Row | Molecule | Fold Change | Log (Fold Change)
1 | B1 | 0.645 | -0.1904
2 | B2 | 0.28 | -0.5528
3 | B3 | 0.6507 | -0.1866
4 | B4 | 0.6517 | -0.186
5 | B5 | 0.6519 | -0.1858
